T1: Activin B (UniProt P09529 293-407)
T1 sequence (looked up): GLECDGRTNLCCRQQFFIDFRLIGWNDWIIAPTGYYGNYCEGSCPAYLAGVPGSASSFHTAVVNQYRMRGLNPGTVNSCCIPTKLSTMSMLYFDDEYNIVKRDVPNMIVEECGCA

T2: Activin A (UniProt P08476 311-426)
T2 sequence (looked up): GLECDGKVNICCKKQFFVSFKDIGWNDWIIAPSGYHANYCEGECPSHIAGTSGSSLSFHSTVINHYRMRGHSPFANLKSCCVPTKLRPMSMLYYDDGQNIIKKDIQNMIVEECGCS

B1: ActRIIB(20-134)-hFc (Fc fusion, not shown: a dimerising Fc or GST)
chain: GRGEAETRECIYYNANWELERTNQSGLERCEGEQDKRLHCYASWRNSSGTIELVKKGCWLDDFNCYDRQECVATEENPQVYFCCCEGNFCNERFTHLPEAGGPEVTYEPPPTAPT
notes: The residue range comes from the construct name; also called full-length counterpart ActRIIB(20-134)-hFc

Columns and labels:
Assay in all cases: Biacore, steady-state affinity fit
[1] = molecular target: T1, Activin B
Description: (§1) Kd values were obtained by steady-state affinity fit due to very rapid association and dissociation of the complex, which prevented accurate determination of kₒₙ and koff.

[2] = molecular target: T2, Activin A
Description: as §1

[3] = molecular target: B1
Description: as §1

| Binder | Kd [1] [pM] | Kd [2] [pM] | Kd [3] [pM] |
| --- | --- | --- | --- |
| B1 | 12 | 16 | – |
| Growth and Differentiation Factor-11 (GDF11) (ligand, UniProt O95390 299-407, looked up, also called BMP11) NLGLDCDEHSSESRCCRYPLTVDFEAFGWDWIIAPKRYKANYCSGQCEYMFMQKYPHTHLVQQANPRGSAGPCCTPTKMSPINMLYFNDKQQIIYGKIPGMVVDRCGCS | – | – | 36 |

Reference: patent publication US20100316644A1 (ACCELERON PHARMA, published 2010)
